In patent publication US20220267421A1 (INVOX PHARMA, published 2022):

T1: OX40 on activated T cells (UniProt P43489 29-277, limits assumed)
T1 sequence (looked up): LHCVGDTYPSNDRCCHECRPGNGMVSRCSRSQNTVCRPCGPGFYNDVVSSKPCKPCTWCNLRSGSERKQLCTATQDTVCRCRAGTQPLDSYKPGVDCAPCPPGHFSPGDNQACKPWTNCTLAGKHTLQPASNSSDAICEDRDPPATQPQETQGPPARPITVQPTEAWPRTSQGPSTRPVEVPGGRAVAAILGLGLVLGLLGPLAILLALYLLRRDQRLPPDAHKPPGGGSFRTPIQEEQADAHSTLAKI

B1: OX40 (FS20-022-049)/FS28-256-271 mAb^2 (bispecific antibody, human IgG1, kappa, L234A L235A)
heavy: EVQLLESGGGLVQPGGSLRLSCAASGFTFTHTYMSWVRQAPGKGLEWVSAISPTYSTTNYADSVKGRFTISRDNNKNTLYLQMNSLRAEDTAVYYCARYNAYHAALDYWGQGTLVTVSSASTKGPSVFPLAPSSKSTSGGTAALGCLVKDYFPEPVTVSWNSGALTSGVHTFPAVLQSSGLYSLSSVVTVPSSSLGTQTYICNVNHKPSNTKVDKKVEPKSCDKTHTCPPCPAPEAAGGPSVFLFPPKPKDTLMISRTPEVTCVVVDVSHEDPEVKFNWYVDGVEVHNAKTKPREEQYNSTYRVVSVLTVLHQDWLNGKEYKCKVSNKALPAPIEKTISKAKGQPREPQVYTLPPSRDEYWDQEVSLTCLVKGFYPSDIAVEWESNGDEQFAYKTTPPVLDSDGSFFLYSKLTVDQYRWNPADYFSCSVMHEALHNHYTQKSLSLSPG
light: EIVLTQSPGTLSLSPGERATLSCRASQSVSSSYLAWYQQKPGQAPRLLIYGASSRATGIPDRFSGSGSGTDFTLTISRLEPEDFAVYYCQQTVPYPYTFGQGTKVEIKRTVAAPSVFIFPPSDEQLKSGTASVVCLLNNFYPREAKVQWKVDNALQSGNSQESVTEQDSKDSTYSLSSTLTLSKADYEKHKVYACEVTHQGLSSPVTKSFNRGEC
B2: FS28-256-271 (in CD137 mAb^2 format) (bispecific antibody, V domains shown)
VH: EVQLLESGGGLVQPGGSLRLSCAASGFTFTHTYMSWVRQAPGKGLEWVSAISPTYSTTNYADSVKGRFTISRDNNKNTLYLQMNSLRAEDTAVYYCARYNAYHAALDYWGQGTLVTVSS
VL: EIVLTQSPGTLSLSPGERATLSCRASQSVSSSYLAWYQQKPGQAPRLLIYGASSRATGIPDRFSGSGSGTDFTLTISRLEPEDFAVYYCQQTVPYPYTFGQGTKVEIK

Tests used:
[1] = molecular target: cell surface human mesothelin (MSLN) (human, UniProt Q13421 296-598); experiment: cell-based or functional assay
Sequence of cell surface human mesothelin (MSLN) (Q13421 other isoform, or with tags, fused parts or gaps limits assumed): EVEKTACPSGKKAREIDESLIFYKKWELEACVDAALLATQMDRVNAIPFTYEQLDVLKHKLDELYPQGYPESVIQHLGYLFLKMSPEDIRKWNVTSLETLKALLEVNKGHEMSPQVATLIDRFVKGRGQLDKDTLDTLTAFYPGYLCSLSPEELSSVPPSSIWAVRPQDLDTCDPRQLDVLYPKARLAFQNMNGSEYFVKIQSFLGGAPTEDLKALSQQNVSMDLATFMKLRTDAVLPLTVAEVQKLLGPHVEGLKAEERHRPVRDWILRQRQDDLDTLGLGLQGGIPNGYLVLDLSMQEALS

[2] = molecular target: T1, OX40 on activated T cells; experiment: cell-based or functional assay
[3] = molecular target: T2, human MSLN-His-Avi (human, UniProt Q13421 296-598, single biotin (BirA) in the biotinylated form); experiment: ratio of the two SPR KD
T2 construct: Monomeric, made in HEK293-6E; Used both immobilised and in solution; also called hMSLN-His-Avi; biotinylated hMSLN-His-Avi
T2 sequence (Q13421 other isoform, or with tags, fused parts or gaps): as the sequence (Q13421 other isoform, or with tags, fused parts or gaps limits assumed) above

[4] = molecular target: CD137 on CD8+ T cells (human, UniProt Q07011 24-255); experiment: cell-based or functional assay
Sequence of CD137 on CD8+ T cells (Q07011 24-255): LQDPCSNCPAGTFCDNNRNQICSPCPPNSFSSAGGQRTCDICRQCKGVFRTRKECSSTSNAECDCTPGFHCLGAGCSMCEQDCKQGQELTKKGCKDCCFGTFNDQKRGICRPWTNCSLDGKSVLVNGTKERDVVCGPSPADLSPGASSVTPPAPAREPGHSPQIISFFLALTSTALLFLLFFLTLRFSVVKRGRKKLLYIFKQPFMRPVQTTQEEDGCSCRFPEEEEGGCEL

[5] = molecular target: T2, human MSLN-His-Avi; experiment: SPR as Example 4.1 (about 40 RU instead of 100), MSLN immobilised
[6] = molecular target: T2, human MSLN-His-Avi; experiment: SPR as Example 4.1 (about 40 RU instead of 100), MSLN in solution

Binder | T cell activation assay (IL-2 release), NCI-H226 cells for crosslinking: EC50 [1] [nM] | T cell activation assay (IL-2 release), NCI-H226 cells for crosslinking: EC50 [2] [nM] | Ratio of KD in solution/immobilised for human MSLN-His-Avi [3] | CD8+ T cell activation assay (IL-2 release), NCI-H226 cells for crosslinking: EC50 [1] [nM] | CD8+ T cell activation assay (IL-2 release), NCI-H226 cells for crosslinking: EC50 [4] [nM] | Kd [5] [nM] | Kd [6] [nM]
B1 | 0.11 | 0.11 | – | – | – | – | –
B2 | – | – | 3 | 0.096 | 0.096 | 5.9 | 18.2
